B1: ZBED1 (parent)
chain: EQVFSLGDGVSGGFFGIRDSSFL

Variants of: B1
Experiment: protein stability index of a GFP-peptide fusion (GPS, HEK-293T) (PSI 1-6); higher = more stable
Conditions: c terminus: native
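Also: lentivirally expressed fusions sorted by FACS into six bins by GFP to DsRed ratio, PSI derived from sequencing read proportions per bin multiplied by bin number.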

Protein stability index, by site and new letter:
G16: W 1.76 | A 2.62 | S 2.05 | N 3.46 | P 2.85 | K 3.29 | Y 2.29 | V 1.85 | D 3.77 | T 2.77 | R 3.14 | M 2.17 | F 1.91 | H 3.56 | E 2.83 | I 1.57 | Q 2.93 | L 2.8 | C 1.84
L6: A 3.92 | S 4.12 | C 3.76 | T 3.27 | M 3.2 | W 3.01 | G 4.31 | K 3.86 | Q 3.5 | V 3.08 | N 3.4 | D 3.73 | R 4.26 | I 3.14 | Y 3.42 | F 3.22 | P 3.96 | H 3.97 | E 4.69
S5: E 3.81 | G 3.27 | M 2.67 | T 3.51 | P 3.2 | K 3.31 | C 2.6 | V 2.44 | Y 2.63 | D 3.74 | N 3.96 | R 3.29 | H 3.36 | Q 3.34 | F 1.75 | A 2.98 | W 1.83 | I 2.16 | L 2.24
R18: Y 2.49 | L 2.78 | I 2.26 | H 2.62 | K 3.96 | A 2.92 | S 3.65 | F 2.07 | D 3.98 | T 3.32 | W 2.21 | C 1.98 | E 3.93 | Q 3.38 | N 3.9 | G 3.42 | V 2.14 | P 3.28 | M 2.71
S21: A 3
D19: H 2.19 | E 2.92 | I 1.82 | S 1.68 | N 2.75 | F 3.4 | Y 2.57 | C 2.26 | Q 2.15 | L 2.1 | K 3.4 | R 2.78 | T 1.85 | P 2.15 | V 2.65 | M 1.77 | A 1.3 | G 2.87
V3: W 2.55 | N 3.82 | S 3.63 | L 2.91 | Q 4.23 | Y 3.01 | P 4.06 | M 3.15 | K 3.7 | R 3.55 | T 3.6
S20: C 1.96 | I 2.42 | P 3.73 | A 3.1 | R 3.21 | Y 2.96 | N 3.7 | H 2.76 | G 3.22 | K 3.53 | M 2.49 | F 2.39 | Q 3.7 | T 3.22 | D 3.71 | W 2.35 | E 3.91 | L 2.5 | V 2.63
G7: M 2.52 | V 2.19 | A 2.98 | I 1.9 | D 4.29 | F 1.99 | L 2.18 | T 3.23 | Q 3.46 | N 3.28 | C 2.61 | P 3.51 | E 3.84 | H 3.34 | S 2.94 | Y 2.34 | K 3.16 | R 2.94 | W 1.7
V10: D 3.78 | S 4.03 | R 4.32 | Y 3.38 | N 3.8 | C 3.35 | K 3.6 | W 2.61 | L 3 | T 3.78 | G 3.89 | H 3.55 | P 3.86 | Q 3.92 | M 2.57 | F 2.75 | I 2.92 | A 3.87 | E 3.62
G9: W 1.51 | K 2.99 | E 3.25 | M 2.9 | T 3.1 | H 3.48 | Q 3.16 | I 2.47 | Y 2.51 | S 3.27 | V 3.09 | A 3.15 | L 2.01 | N 3.46 | C 2.32 | F 2.55 | D 4 | P 3.29 | R 2.86
I17: T 4.3 | R 4.2 | H 4.03 | M 3.75 | S 4.2 | Q 4.31 | E 4.71 | G 4.17 | N 4.02 | K 3.8 | L 3.68 | Y 3.28 | F 3.42 | A 4.37 | V 3.87 | C 3.76 | W 3.52 | D 4.55 | P 4
F14: S 3.71 | D 4.16 | V 3 | C 4.21 | L 3.67 | Y 3.18 | T 4.12 | N 4.62 | A 3.82 | M 3.74 | K 4.3 | W 3.44 | P 4.08 | R 4 | G 4.44 | H 4.24 | I 3.21 | Q 4.45 | E 4.11
D8: L 1.99 | W 1.91 | E 3.04 | Y 2.01 | C 2.07 | K 2.69 | P 2.73 | F 1.61 | R 2.61 | V 1.57 | A 2.7 | T 2.91 | N 2.88 | H 2.73 | S 3.22 | Q 2.73 | I 1.41 | M 1.47 | G 3.24
S11: E 4.02 | T 3.18 | W 2.39 | V 2.9 | F 2.35 | R 2.89 | Y 2.17 | K 3.11 | H 3.15 | L 3.09 | D 4.01 | A 3.73 | G 3.26 | C 2.48 | Q 3.05 | I 2 | M 2.81 | N 3.63 | P 2.76
F15: G 3.85 | A 4.32 | S 4.43 | K 4.1 | C 3.64 | T 4.08 | E 3.78 | W 2.88 | Q 4.63 | D 4.15 | N 4.21 | V 3.65 | H 4.11 | Y 3.52 | R 4.13 | L 3.7 | P 4.25 | I 3.67 | M 3.82
G12: Y 2.05 | C 2.49 | K 3.52 | D 4.06 | E 4.06 | H 3.01 | N 3.6 | Q 3.52 | S 3.55 | M 2.88 | R 2.92 | V 2.45 | P 3.5 | L 2.3 | A 3.41 | T 3.28 | W 1.72 | F 2.01 | I 1.42
F4: K 4.06 | A 4.22 | M 3.63 | Y 3.47 | P 4.11 | H 4.16 | E 4.55 | G 4.16 | L 3.36 | S 4.29 | I 3.63 | N 4.11 | V 3.85 | Q 4.12 | W 3.08 | R 4.16 | C 3.18 | D 4.38 | T 3.75
G13: L 2.23 | I 1.99 | C 3.08 | K 3.08 | N 3.58 | D 3.73 | P 3.49 | R 2.96 | A 3.28 | E 4.08 | F 1.98 | T 3.17 | S 3.49 | Q 3.48 | Y 2.04 | W 1.82 | H 3.41 | V 2.22 | M 2.2
